Measured values from patent US20240084003A1 (SIMCERE ZAIMING PHARMACEUTICAL, published 2024).
Where a chain is given by its changes, count along the chain named.

T1: human CD22-ECD-His protein (human, UniProt P20273 20-687)
T1 construct: Made in house in HEK293E; also called hCD22-ECD-His; recombinant human CD22-ECD His protein; not shown: His tag
T1 sequence: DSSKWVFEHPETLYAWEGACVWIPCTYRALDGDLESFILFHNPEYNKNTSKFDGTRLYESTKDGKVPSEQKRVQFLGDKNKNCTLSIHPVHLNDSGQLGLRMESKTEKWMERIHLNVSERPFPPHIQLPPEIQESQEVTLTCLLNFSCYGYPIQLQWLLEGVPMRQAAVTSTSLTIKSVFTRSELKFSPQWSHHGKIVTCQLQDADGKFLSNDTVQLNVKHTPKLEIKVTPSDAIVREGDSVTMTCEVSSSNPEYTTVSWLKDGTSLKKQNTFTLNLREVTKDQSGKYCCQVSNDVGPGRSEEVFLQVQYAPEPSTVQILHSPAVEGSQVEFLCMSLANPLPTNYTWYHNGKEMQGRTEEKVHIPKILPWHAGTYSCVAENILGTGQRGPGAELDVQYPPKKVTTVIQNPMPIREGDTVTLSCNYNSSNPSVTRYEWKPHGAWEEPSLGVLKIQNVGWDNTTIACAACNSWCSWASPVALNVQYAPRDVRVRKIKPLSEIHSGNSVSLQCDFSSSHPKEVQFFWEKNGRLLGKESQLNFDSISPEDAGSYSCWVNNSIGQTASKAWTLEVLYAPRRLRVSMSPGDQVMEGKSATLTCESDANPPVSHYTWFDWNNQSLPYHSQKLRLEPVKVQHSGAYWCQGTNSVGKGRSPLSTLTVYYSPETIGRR

T2: murine CD22 protein (ACROBiosystems, SI2-M52Ha) (murine, UniProt P35329 22-708)
T2 construct: extracellular domain; also called murine CD22-ECD; murine CD22-ECD-His
T2 sequence (looked up): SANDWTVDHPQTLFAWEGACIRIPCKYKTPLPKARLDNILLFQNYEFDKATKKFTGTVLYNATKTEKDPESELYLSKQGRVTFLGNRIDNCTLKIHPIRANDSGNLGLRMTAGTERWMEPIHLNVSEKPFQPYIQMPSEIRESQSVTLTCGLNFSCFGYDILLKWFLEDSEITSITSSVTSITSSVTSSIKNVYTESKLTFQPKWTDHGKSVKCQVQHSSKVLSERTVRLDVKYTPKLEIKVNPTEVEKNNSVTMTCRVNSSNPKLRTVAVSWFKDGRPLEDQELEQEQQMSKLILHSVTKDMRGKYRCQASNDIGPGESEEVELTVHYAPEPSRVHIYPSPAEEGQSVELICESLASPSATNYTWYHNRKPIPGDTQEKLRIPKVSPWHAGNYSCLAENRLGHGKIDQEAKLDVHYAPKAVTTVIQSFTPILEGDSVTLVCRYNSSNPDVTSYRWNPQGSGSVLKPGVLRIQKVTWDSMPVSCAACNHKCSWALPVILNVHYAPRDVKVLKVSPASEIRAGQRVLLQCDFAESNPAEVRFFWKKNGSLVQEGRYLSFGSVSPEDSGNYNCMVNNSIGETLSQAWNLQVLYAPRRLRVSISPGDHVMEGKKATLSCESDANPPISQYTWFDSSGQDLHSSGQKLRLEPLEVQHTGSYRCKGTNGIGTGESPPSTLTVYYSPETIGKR

B1: F1.200.11 (antibody, human IgG1, kappa, V domains shown)
VH: QNQLVQSGPELKKPGETVKISCKASGYTFTTAGMQWVQKMPGKGFKWIGWINTLSGEPKYAEDFKGRFAFSLETSATTAYLQISNLKNEDTATYFCARAYYSNLYWYFDVWGTGTTVTVSS
VL: DIVMTQSQKFMSTTVGDRVTITCKASQNVVTAVAWYQQKPGQSPKVLIYSASNRYSGVPDRFTGSGSGTDFTLTISNMHSEDLANYFCHQYSSYPFTFGSGTKLEIKR
notes: Human-murine chimeric IgG1, kappa
B2: F2.343.16 (antibody, human IgG1, lambda, V domains shown)
VH: QVQLKQSGPGLVQPSQSLSITCTVSGFSLTGYGVQWVRQSPGKGLEWLGVIWGGGGTDYNAAFISRLNIIKDNSKSQVFFKMNSLQADDTAIYYCARYSKYGHFDVWGTGTAVTVSS
VL: QAVVTQESALTTSPGETVTLTCRSSTGAVTTSNYANWVQEKPDHLFTGLIGGTYNRVPGVPARFSGSLIGDKAALTITGAQTEDEAIYFCALWYSNHFWVFGGGTKLTVLG
notes: Human-murine chimeric IgG1, lambda
B3: F1.257.3 (antibody, human IgG1, kappa, V domains shown)
VH: QVQLQQSGPELARPGASVKLSCKASGYTFTSYGISWVKQRTGQDLEWIGEIYPKLGTTYYNEKFKDKATLTTDRSSSTAYMALRSLTSEDSAVYFCACPHYYATRGGDYWGQGTTLTVSS
VL: EIVLTQSPATLSVTPGDSVTFSCRASQSISNHLHWYQQKSHESPRLLIRYASQSISGIPSRFSGSGSGTDFTLSLSSVETEDFGVYFCQQSHSWPYTFGGGTKLEIAR
notes: as for B1
B4: F2.205.9 (antibody, human IgG1, lambda, V domains shown)
VH: QVTLKESGPGILQPSQTLSLTCSFSGFSLSTSGMGVGWIRQPSGKGLEWLAHIWWDDDEYYNPALKSRLTISKDTSKNQVFLKIANVDTADTATYYCARISIPYGYYDWFFDVWGTGTTVTVSA
VL: QAVVTQESALTTSPGETVTLTCRSSTGAVTTRNYANWVQEKPDHLFTGLIGGTNNRAPGVPARFSGSLIGDKAALTITGAQTEDEAIYFCALWYSNHFIFGSGTKVTVLG
notes: as for B2
B5: F2.55.1 (antibody, human IgG1, lambda, V domains shown)
VH: QVTLKESGPGILQPSQTLSLTCSFSGFSLSTFPLGVGWIRQPSGKGLEWLAHVWWNDDDYYNPALKSRLTISKDTSNTRVFLSVASVDTAETATYYCARLNWDRWYFDVWGTGTTVTVSS
VL: QLVLTQSSSASFSLGASAKLTCTLSSQHSAYTVEWYQQQPLKPPKYVMELKKDGSHSTGDGIPDRFSGSSSGADRYLSISNIQPEDEAIYICGVGDTVKEQFVFGGGTKVTVLG
notes: as for B2
B6: F1.105.11 (antibody, human IgG1, kappa, V domains shown)
VH: EVQLQQSGPVLVKPGASVKMSCKASGYTFSDYFMNWVKQSHGKSLEWIGIINSYSGGTSYNQKFKGKATLTVDKSSSTAYMELNSLTSEDSAVYYCARWMDYWGQGTSVTVSS
VL: DVQITQSPSYLAASPGETITINCRTSESISKHLAWYQEKPGKTNKLLIYSGSTLQSGIPSRFSGSGSGTDFTLTISSLEPEDFAMYYCQQHNEYPWTFGGGTKLEIKR
notes: as for B1
B7: F1.17.1 (antibody, human IgG1, kappa, V domains shown)
VH: QVQLKESGPGLVAPSQSLSITCTVSGFSLSRYTVHWVRQPPGKGLEWLGMIWGGGSTDYNSALKSRLSISKDNSKSQVFLKMNSLQTDDTAMYYCARPHDFDAGGFAYWGQGTLVTVSA
VL: QIVLTQSPAILSTSPGEKVTMTCSASSRVNYMYWYQQKPGSSPRLLIYDTSNLASGVPVRFSGSGSGTSYSLTISRMEAEDAATYYCQQWTSYPLTFGAGTKLELKR
notes: as for B1
B8: F1.280.1 (antibody, human IgG1, kappa, V domains shown)
VH: QIQLVQSGPELKKPGETVKISCKASGYTFTTYGMSWVKQTPGKGLTWMGWINTDSGVPTYADDFKRRFAFSLEASATTAYLQINNLKNEDTATYFCARGGPDYWGQGTTLTVSS
VL: DILLTQSPATLSVTPGETVSLSCRASQSIYKNLHWYHQKSHRSPRLLIKYASDSISGIPSRFTGSGSGTNFTLSINSVKPEDEGIYYCLQGYIVPLTFGAGTKLELKR
notes: as for B1
B9: F1.245.2 (antibody, human IgG1, kappa, V domains shown)
VH: EVQLQQSGAELVKPGASVKLSCTGSGFNIKDYYIHWVKQRTEQGLEWMGRIDPEDGETEYAPKFQDEATITSDTSSNTAYLQLSSLTYEDTAVYYCAREAAGYFYRGSSYGYFDVWGTGTTVTVSS
VL: DFQMTQTTSFLSASLGDRVTISCSASQDISNYLNWYQQKPDGTVKLLIYYTSSLHSGVPSRFSGSGSGTDYSLTISNLEPEDIATYYCQQYSMLPYTFGGGTKLEMER
notes: as for B1
B10: F1.216.2 (antibody, human IgG1, kappa, V domains shown)
VH: QVQLQQSGPEVVRPGASVKISCKASGYAFSSSWMNWMKQRPGKALEWIGRIYPGDGDTNYSGEFKVKATLTADKSSSTAYMQLSSLTSEDSAVYFCAREGSYYSNPWYFDYWGQGTTLTVSS
VL: DVLVTQTPLSLPVSLGDQASISCRSSQSIVQSNGDTYLEWYLQKPGQSPKLLIYKVSNRFSGVPDRFSGSGSGTDFTLKISRVEAEDLGVYYCFQGSHVPFTFGSGTKLEIKR
notes: as for B1
B11: F1.224.1 (antibody, human IgG1, kappa, V domains shown)
VH: EVLLHQSGPELVKPGASVKISCKASGYTFTDFNMDWVRQRHGQSLEWIGDVNPNNGGTIYNQKFKGKATLTVDKSSSTVYMDLRSLTSDDTAVYYCVRLGTSDYGEAWFISWGQGTVVTVSA
VL: DIVLTQSPASLAVSLGQRATISCRASQSVSTPRYSFMHWYQQKPGQPPKLLIKYASNLESGFPARFTGSGSGTDFTLNIHPVEEEDTAAYYCQQSWAIPWTFGGGTKLEIKR
notes: as for B1
B12: HA22-hIgG1 (antibody, V domains shown)
VH: EVQLVESGGGLVKPGGSLKLSCAASGFAFSIYDMSWVRQTPEKCLEWVAYISSGGGTTYYPDTVKGRFTISRDNAKNTLYLQMSSLKSEDTAMYYCARHSGYGTHWGVLFAYWGQGTLVTVSA
VL: DIQMTQTTSSLSASLGDRVTISCRASQDISNYLNWYQQKPDGTVKLLIYYTSILHSGVPSRFSGSGSGTDYSLTISNLEQEDFATYFCQQGNTLPWTFGCGTKLEIKR
B13: F1.120.15 (antibody, human IgG1, kappa, V domains shown)
VH: QVQLQQSGPELVKPGASVKISCKASGNAFSNSWMNWVKQRPGKGLEWIGRVYSEDGDTQYNGKFRDKATLTADRSTSTAYMQLSSLTSEDSAVYFCARWLIYYGTYGAMDYWGQGTSVTVSS
VL: B12 VL with S30N, Q37H, Y50F, I53R, L54P, H55Y, F83I, C100G
notes: as for B1
B14: F2.70.2 (antibody, human IgG1, lambda, V domains shown)
VH: EVQLVESGGGLVKPGGSLKLSCAASGFTFSDYGMNWFRQAPEKGLEWVAYISRGSHTIYYADTVKGRFTISRDNAKNTLFLQMTSLRSNDTAMYYCVRMAGYYAMDYWGQGTSVTVSS
VL: QLVLTQSSSASFSLGASAKLTCTLSSQHSSYIIEWYQQQPLKPPKYVMELKKDGSHSTGDGIPDRFSGSSSGADRYLSISNIQPEDEAIYICGVGDTIKEQFVYVFGGGTKVTVLG
notes: as for B2
B15: F2.104.10 (antibody, human IgG1, lambda, V domains shown)
VH: B14 VH with L11F, K76E, V114L
VL: B14 VL with L50V, P84S
notes: as for B2

target: T1, human CD22-ECD-His protein; assay: ELISA, Ab 0.10 nM
How it was run: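 Plates coated overnight at 4 °C with 2 μg/mL CD22-ECD-His and blocked with 2% BSA in PBS. Chimeric antibody bound at 37 °C for 2 h, followed by HRP-labeled secondary antibody at 37 °C for 2 h. TMB read-out developed 30 min at room temperature and stopped with 1.0 N HCl.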

Binder	OD450
B1	2.4 OD450
B2	1.93 OD450
B3	2.49 OD450
B4	2.1 OD450
B5	2.03 OD450
B6	2.52 OD450
B7	2.41 OD450
B8	2.38 OD450
B9	2.57 OD450
B10	2.55 OD450
B11	2.37 OD450
B12	2.57 OD450
B13	2.63 OD450
B14	1.86 OD450
B15	1.94 OD450

target: T2, murine CD22 protein (ACROBiosystems, …); assay: ELISA, murine CD22-ECD-His coated
How it was run: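 Read-out is TMB absorbance after a 30 min room-temperature development stopped with 1.0 N HCl. It reflects chimeric antibody bound to plate-coated CD22 (2 μg/mL), detected with an HRP-labelled secondary antibody. Antibody and secondary incubations each ran 2 h at 37° C.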

Binder	binding result
B1	no binding (tested: 100 nM)
B2	no binding (tested: 100 nM)
B3	no binding (tested: 100 nM)
B4	no binding (tested: 100 nM)
B5	no binding (tested: 100 nM)
B6	no binding (tested: 100 nM)
B7	no binding (tested: 100 nM)
B8	no binding (tested: 100 nM)
B9	no binding (tested: 100 nM)
B10	no binding (tested: 100 nM)
B11	no binding (tested: 100 nM)
B12	no binding (tested: 100 nM)
B13	no binding (tested: 100 nM)
B14	no binding (tested: 100 nM)
B15	no binding (tested: 100 nM)
